Measured values reported in paper PMC8792056 (2022).

Experiments:
[1] = target: DNAJB14-ΔDUF, FLAG-tagged (human); assay: co-IP; HEK293T cells transfected with FLAG-tagged chaperone (DNAJB12 isoforms alone or with HTT-134Q-GFP or HTT-17Q-GFP; DNAJB14 forms also in cells expressing FUS-WT-YFP or FUS-R521H-YFP), lysed 48 h later in 50 mM HEPES pH 7.9, 0.5% Triton X-100, 5% glycerol, 150 mM NaCl, 2 mM EDTA; anti-FLAG M2 beads 3 h at 4 °C, 7 washes; blot with anti-HSC70/HSP70 for endogenous HSP70
[2] = target: DNAJB14-ΔDUF, FLAG-tagged (human); assay: co-IP; HEK293T cells co-transfected with FLAG-tagged DNAJB14 forms and DNAJB12-FL-mOrange; lysis in 50 mM HEPES pH 7.9, 0.5% Triton X-100, 5% glycerol, 150 mM NaCl, 2 mM EDTA; anti-FLAG M2 beads 3 h at 4 °C, 7 washes; blot with anti-RFP for mOrange, normalised to the FLAG band

HSP70 (from UniProt P0DMV8 1-641) (natural protein)
interaction as percent of that of DNAJB14-FL [1]: 50%

B1: DNAJB12-FL-mOrange (natural protein)
chain: MESNKDEAERCISIALKAIQSNQPDRALRFLEKAQRLYPTPRVRALIESLNQKPQTAGDQPPPTDTTHATHRKAGGTDAPSANGEAGGESTKGYTAEQVAAVKRVKQCKDYYEILGVSRGASDEDLKKAYRRLALKFHPDKNHAPGATEAFKAIGTAYAVLSNPEKRKQYDQFGDDKSQAARHGHGHGDFHRGFEADISPEDLFNMFFGGGFPSSNVHVYSNGRMRYTYQQRQDRRDNQGDGGLGVFVQLMPILILILVSALSQLMVSSPPYSLSPRPSVGHIHRRVTDHLGVVYYVGDTFSEEYTGSSLKTVERNVEDDYIANLRNNCWKEKQQKEGLLYRARYFGDTDMYHRAQKMGTPSCSRLSEVQASLHG
fold lower interaction than with DNAJB14-FL [2]: 3 fold
